Laboratory results published in ChEMBL document CHEMBL4414660, “Effect of Modifier Structure on the Activation of Leukotriene A4 Hydrolase Aminopeptidase Activity” (J Med Chem, 2019).

Columns and labels:
Conditions in all cases: Homo sapiens
[1] = compound: Cc1ccc(Cc2ccc(-c3csc(N)n3)cc2)cc1; assay: (§1) Activation of N-terminal (His)6 and Xpress-tagged LTA4H (unknown origin) expressed in Escherichia coli BL21(DE3) cells assessed as increase in aminopeptidase activity by measuring Kcat/Km ratio for p-nitroanilide release at 5 uM using L-Alanine-p-nitroanilide incubated for 10 mins by UV plate reader based assay
[2] = compound: COc1ccc(Cc2ccccc2)cc1; assay: as §1
[3] = compound: Nc1nc(-c2ccc(Cc3ccccc3)cc2)cs1; assay: as §1
[4] = compound: Nc1nc(-c2ccc(Cc3ccc(C(F)(F)F)cc3)cc2)cs1; assay: as §1
[5] = compound: COc1ccc(Cc2ccc(-c3csc(N)n3)cc2)cc1; assay: as §1
[6] = compound: Cc1ccc(Cc2ccc(-c3csc(N)n3)cc2)cc1; assay: (§2) Activation of N-terminal (His)6 and Xpress-tagged LTA4H (unknown origin) expressed in Escherichia coli BL21(DE3) cells assessed as increase in aminopeptidase activity by measuring Km for p-nitroanilide release at 1 uM using L-Alanine-p-nitroanilide incubated for 10 mins by UV plate reader based assay
[7] = compound: COc1ccc(Cc2ccccc2)cc1; assay: as §2
[8] = compound: Nc1nc(-c2ccc(Cc3ccccc3)cc2)cs1; assay: as §2
[9] = compound: Nc1nc(-c2ccc(Cc3ccc(C(F)(F)F)cc3)cc2)cs1; assay: as §2
[10] = compound: COc1ccc(Cc2ccc(-c3csc(N)n3)cc2)cc1; assay: as §2
[11] = compound: Cc1ccc(Cc2ccc(-c3csc(N)n3)cc2)cc1; assay: (§3) Activation of N-terminal (His)6 and Xpress-tagged LTA4H (unknown origin) expressed in Escherichia coli BL21(DE3) cells assessed as increase in aminopeptidase activity by measuring Kcat/Km ratio for p-nitroanilide release at 0.1 uM using L-Alanine-p-nitroanilide incubated for 10 mins by UV plate reader based assay
[12] = compound: COc1ccc(Cc2ccccc2)cc1; assay: as §3
[13] = compound: Nc1nc(-c2ccc(Cc3ccccc3)cc2)cs1; assay: as §3
[14] = compound: Nc1nc(-c2ccc(Cc3ccc(C(F)(F)F)cc3)cc2)cs1; assay: as §3
[15] = compound: COc1ccc(Cc2ccc(-c3csc(N)n3)cc2)cc1; assay: as §3
[16] = compound: Cc1ccc(Cc2ccc(-c3csc(N)n3)cc2)cc1; assay: (§4) Activation of N-terminal (His)6 and Xpress-tagged LTA4H (unknown origin) expressed in Escherichia coli BL21(DE3) cells assessed as increase in aminopeptidase activity by measuring Kcat/Km ratio for p-nitroanilide release at 1 uM using L-Alanine-p-nitroanilide incubated for 10 mins by UV plate reader based assay
[17] = compound: COc1ccc(Cc2ccccc2)cc1; assay: as §4
[18] = compound: Nc1nc(-c2ccc(Cc3ccccc3)cc2)cs1; assay: as §4
[19] = compound: Nc1nc(-c2ccc(Cc3ccc(C(F)(F)F)cc3)cc2)cs1; assay: as §4
[20] = compound: COc1ccc(Cc2ccc(-c3csc(N)n3)cc2)cc1; assay: as §4
[21] = compound: Cc1ccc(Cc2ccc(-c3csc(N)n3)cc2)cc1; assay: (§5) Activation of N-terminal (His)6 and Xpress-tagged LTA4H (unknown origin) expressed in Escherichia coli BL21(DE3) cells assessed as increase in aminopeptidase activity by measuring Kcat for p-nitroanilide release at 1 uM using L-Alanine-p-nitroanilide incubated for 10 mins by UV plate reader based assay
[22] = compound: COc1ccc(Cc2ccccc2)cc1; assay: as §5
[23] = compound: Nc1nc(-c2ccc(Cc3ccccc3)cc2)cs1; assay: as §5
[24] = compound: Nc1nc(-c2ccc(Cc3ccc(C(F)(F)F)cc3)cc2)cs1; assay: as §5
[25] = compound: COc1ccc(Cc2ccc(-c3csc(N)n3)cc2)cc1; assay: as §5
[26] = compound: Cc1ccc(Cc2ccc(-c3csc(N)n3)cc2)cc1; assay: (§6) Activation of N-terminal (His)6 and Xpress-tagged LTA4H (unknown origin) expressed in Escherichia coli BL21(DE3) cells assessed as increase in aminopeptidase activity by measuring Km for p-nitroanilide release at 0.5 uM using L-Alanine-p-nitroanilide incubated for 10 mins by UV plate reader based assay
[27] = compound: COc1ccc(Cc2ccccc2)cc1; assay: as §6
[28] = compound: Nc1nc(-c2ccc(Cc3ccccc3)cc2)cs1; assay: as §6
[29] = compound: Nc1nc(-c2ccc(Cc3ccc(C(F)(F)F)cc3)cc2)cs1; assay: as §6
[30] = compound: COc1ccc(Cc2ccc(-c3csc(N)n3)cc2)cc1; assay: as §6
[31] = compound: Cc1ccc(Cc2ccc(-c3csc(N)n3)cc2)cc1; assay: (§7) Activation of N-terminal (His)6 and Xpress-tagged LTA4H (unknown origin) expressed in Escherichia coli BL21(DE3) cells assessed as increase in aminopeptidase activity by measuring Kcat/Km ratio for p-nitroanilide release at 0.5 uM using L-Alanine-p-nitroanilide incubated for 10 mins by UV plate reader based assay
[32] = compound: COc1ccc(Cc2ccccc2)cc1; assay: as §7
[33] = compound: Nc1nc(-c2ccc(Cc3ccccc3)cc2)cs1; assay: as §7
[34] = compound: Nc1nc(-c2ccc(Cc3ccc(C(F)(F)F)cc3)cc2)cs1; assay: as §7
[35] = compound: COc1ccc(Cc2ccc(-c3csc(N)n3)cc2)cc1; assay: as §7
[36] = compound: Cc1ccc(Cc2ccc(-c3csc(N)n3)cc2)cc1; assay: (§8) Activation of N-terminal (His)6 and Xpress-tagged LTA4H (unknown origin) expressed in Escherichia coli BL21(DE3) cells assessed as increase in aminopeptidase activity by measuring Km for p-nitroanilide release at 5 uM using L-Alanine-p-nitroanilide incubated for 10 mins by UV plate reader based assay
[37] = compound: COc1ccc(Cc2ccccc2)cc1; assay: as §8

B1: Leukotriene A-4 hydrolase (Homo sapiens), P09960 (protein)
chain: MPEIVDTCSLASPASVCRTKHLHLRCSVDFTRRTLTGTAALTVQSQEDNLRSLVLDTKDLTIEKVVINGQEVKYALGERQSYKGSPMEISLPIALSKNQEIVIEISFETSPKSSALQWLTPEQTSGKEHPYLFSQCQAIHCRAILPCQDTPSVKLTYTAEVSVPKELVALMSAIRDGETPDPEDPSRKIYKFIQKVPIPCYLIALVVGALESRQIGPRTLVWSEKEQVEKSAYEFSETESMLKIAEDLGGPYVWGQYDLLVLPPSFPYGGMENPCLTFVTPTLLAGDKSLSNVIAHEISHSWTGNLVTNKTWDHFWLNEGHTVYLERHICGRLFGEKFRHFNALGGWGELQNSVKTFGETHPFTKLVVDLTDIDPDVAYSSVPYEKGFALLFYLEQLLGGPEIFLGFLKAYVEKFSYKSITTDDWKDFLYSYFKDKVDVLNQVDWNAWLYSPGLPPIKPNYDMTLTNACIALSQRWITAKEDDLNSFNATDLKDLSSHQLNEFLAQTLQRAPLPLGHIKRMQEVYNFNAINNSEIRFRWLRLCIQSKWEDAIPLALKMATEQGRMKFTRPLFKDLAAFDKSHDQAVRTYQEHKASMHPVTAMLVGKDLKVD
- kcat/Km [1]: 11700 M⁻¹ s⁻¹
- kcat/Km [2]: 15700 M⁻¹ s⁻¹
- kcat/Km [3]: 8940 M⁻¹ s⁻¹
- kcat/Km [4]: 2030 M⁻¹ s⁻¹
- kcat/Km [5]: 6680 M⁻¹ s⁻¹
- Km [6]: 2.87 mM
- Km [7]: 1.03 mM
- Km [8]: 4.04 mM
- Km [9]: 5.94 mM
- Km [10]: 4.75 mM
- kcat/Km [11]: 6380 M⁻¹ s⁻¹
- kcat/Km [12]: 3070 M⁻¹ s⁻¹
- kcat/Km [13]: 4440 M⁻¹ s⁻¹
- kcat/Km [14]: 840 M⁻¹ s⁻¹
- kcat/Km [15]: 4870 M⁻¹ s⁻¹
- kcat/Km [16]: 11300 M⁻¹ s⁻¹
- kcat/Km [17]: 8460 M⁻¹ s⁻¹
- kcat/Km [18]: 7890 M⁻¹ s⁻¹
- kcat/Km [19]: 1390 M⁻¹ s⁻¹
- kcat/Km [20]: 6740 M⁻¹ s⁻¹
- kcat [21]: 32.5 s⁻¹
- kcat [22]: 8.68 s⁻¹
- kcat [23]: 31.9 s⁻¹
- kcat [24]: 8.23 s⁻¹
- kcat [25]: 32 s⁻¹
- Km [26]: 3.11 mM
- Km [27]: 0.91 mM
- Km [28]: 2.99 mM
- Km [29]: 4.21 mM
- Km [30]: 4.18 mM
- kcat/Km [31]: 10100 M⁻¹ s⁻¹
- kcat/Km [32]: 6060 M⁻¹ s⁻¹
- kcat/Km [33]: 7070 M⁻¹ s⁻¹
- kcat/Km [34]: 1210 M⁻¹ s⁻¹
- kcat/Km [35]: 6180 M⁻¹ s⁻¹
- Km [36]: 2.92 mM
- Km [37]: 1.52 mM
